Laboratory results reported in patent US20160130552A1.

Biological target: RGD-recognizing receptors of monocytes
Assay: cell-based or functional assay

decrease in long-duration monocyte-platelet interactions under flow: 44%
Binder: RGDS [Small RGD peptides containing the amino-acid sequence Arg-Gly-Asp-Ser]
